Assay [1] addresses T1, purified recombinant RSV-Gb protein (Sino Biologics) (Respiratory Syncytial Virus subtype B, …, UniProt O36633 67-299).
T1 sequence: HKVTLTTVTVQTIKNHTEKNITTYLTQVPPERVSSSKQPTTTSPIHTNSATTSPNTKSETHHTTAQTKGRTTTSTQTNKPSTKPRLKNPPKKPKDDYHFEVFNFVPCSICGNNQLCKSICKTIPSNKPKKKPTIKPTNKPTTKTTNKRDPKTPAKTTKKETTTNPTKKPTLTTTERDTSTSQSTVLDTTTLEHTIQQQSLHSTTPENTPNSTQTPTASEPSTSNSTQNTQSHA
As to the kind of experiment: SPR (IBIS MX96), IgG captured on anti-human IgG, RSV Gb injected.

Assay [2] concerns the target T2, purified recombinant RSV-Ga protein (Sino Biologics) (Respiratory Syncytial Virus subtype A, …, UniProt P03423 64-298).
T2 sequence: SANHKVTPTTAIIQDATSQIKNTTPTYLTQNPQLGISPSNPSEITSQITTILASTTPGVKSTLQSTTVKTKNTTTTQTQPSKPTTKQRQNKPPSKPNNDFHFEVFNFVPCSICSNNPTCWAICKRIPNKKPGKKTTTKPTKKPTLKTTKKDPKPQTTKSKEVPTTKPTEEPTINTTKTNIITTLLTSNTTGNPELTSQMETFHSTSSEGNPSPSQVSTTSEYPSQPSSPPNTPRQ
As to the kind of experiment: SPR (IBIS MX96), IgG captured on anti-human IgG, RSV Ga injected.

Assay [3] has as its target T3, RSV G protein of RSV A2 (native, on RSV A2 infected HEp2 cells / virus) (Respiratory Syncytial Virus subtype A, …, UniProt P03423 1-298).
T3 sequence: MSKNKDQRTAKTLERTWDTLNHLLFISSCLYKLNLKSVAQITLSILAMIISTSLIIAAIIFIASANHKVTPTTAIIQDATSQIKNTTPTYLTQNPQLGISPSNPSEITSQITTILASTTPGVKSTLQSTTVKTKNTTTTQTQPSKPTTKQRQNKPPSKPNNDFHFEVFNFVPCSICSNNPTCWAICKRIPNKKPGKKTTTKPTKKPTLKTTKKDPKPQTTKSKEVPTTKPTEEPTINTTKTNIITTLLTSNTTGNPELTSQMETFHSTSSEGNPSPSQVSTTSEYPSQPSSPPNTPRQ
Description: FACS, RSV infected cells, anti-huIgG-PE.

For assay [4], the target named is T4, RSV G protein in denatured and boiled supernatant of RSV A2 infected HEp2 cells (western blot) (Respiratory Syncytial Virus subtype A, …, UniProt P03423 66-298).
T4 sequence: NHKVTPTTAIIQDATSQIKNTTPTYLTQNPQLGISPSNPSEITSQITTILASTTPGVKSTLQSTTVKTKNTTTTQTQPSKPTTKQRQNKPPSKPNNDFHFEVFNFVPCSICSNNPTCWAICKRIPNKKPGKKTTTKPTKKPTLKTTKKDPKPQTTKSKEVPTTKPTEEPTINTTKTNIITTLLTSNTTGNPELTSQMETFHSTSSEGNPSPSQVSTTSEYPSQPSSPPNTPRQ
As to the kind of experiment: western blot, denatured RSV A2 supernatant.

Assay [5] addresses T1, purified recombinant RSV-Gb protein …. As to the kind of experiment: SPR (IBIS MX96), IgG captured on anti-human IgG.

B1: AT44 (antibody, V domains shown)
VH: QVQLQASGPGLVKPSETLSLTCNVSGYSVSSGHYWAWVRQSPGKGLEWIGGIHHSGSTYTNPPLKSRVSISIDTSKNQFSLRLTSVTAADTAVYFCARDLYDLSTGPFWFDPWGQGTLVTVSS
VL: EIVMTQSPATLSVSPGERVTLSCRASQSVSTKVVWYQQKFGQAPRLLIYGASTRATGIPVRFSGSGSGTEFTLTISSLQSEDLAVYFCQQYNKWPMYTFGQGTKLEIKR
Regarding B1, in assay [1], the Kd was 0.1 nM, the koff amounted to 4e-05 s⁻¹ and the association rate constant (kon) stood at 340000 M⁻¹ s⁻¹. In addition, in assay [2], the Kd was found to be 0.1 nM, the koff came to 3e-05 s⁻¹ and the kon stood at 350000 M⁻¹ s⁻¹.

B2: AT34 (antibody, V domains shown)
VH: QVQLMESGGGVVQPGKSLRLSCAASGFTFSHYGMHWVRQAPGKGLEWVAVISYDGDKKYYADSVKGRFTISRDNSKNTLHLHMNSLRHEDTAVYFCASQGAKGGHELSFYCALDVWGQGTTVAVSS
VL: DIQMTQSPSTLSASVGDRVTITCRASQGIGSWLAWYQQKPGKAPKLLIYNASGLESGVPSGFSGSGSGTEFTLTISSLQPDDSATYYCQQYNSHTWTFGQGTKVEFKR
Regarding B2, the binding result in assay [3] is reported as “binds”.

B3: AT42 (antibody, V domains shown)
VH: QVQLQESGPGLVQPSETLSLTCTVSGDSITSNVYYWGWIRQPPGKGLEWIGSIFHSGITHYTPSLNSRVTISVDTSKNQFSLRLSSATAADTAVYYCARHWAGLYFDSWGQGALVAVSS
VL: EIVLTQSPGTLSLSPGERATLSCRASQTVSSSHLAWYQQKPGQAPRLLIHGSSSRATGIPERFSGSGSGPDFTLTISRLKPEDFAVYYCQYYGDSPGSFGEGTKVEIKR
For B3, in assay [1], the Kd came out at 0.3 nM, the koff was determined as 0.0001 s⁻¹ and the kon is 400000 M⁻¹ s⁻¹. Besides, in assay [2], the Kd amounted to 1.3 nM, the koff came out at 0.00076 s⁻¹ and the kon stood at 640000 M⁻¹ s⁻¹. Besides, the binding result in assay [4] is recorded as “no binding”.

B4: AT40 (antibody, V domains shown)
VH: QVQLVESGGGVVQPGMSHRLSCAASTLIFDRHALHWVRQAPGAGLEWVAILSYDGTTDYYADSVKGRFTVSRDTSKNTVFLQMNGLRPQDTAVYYCARGRALDDFADYGGYYFDYWGQGILVTVSS
VL: DIQMTQSPSSVSASVGDKVTITCRASQGISTWLAWYQQKPGKAPALLIYSASRLQSGVPSRFSGSGSGTDFTLTISSLQPEDYATYYCQQANTFPFTFGPGTKVDIKR
With B4, in assay [1], the Kd is 0.1 nM, the koff worked out at 3e-05 s⁻¹ and the kon was found to be 340000 M⁻¹ s⁻¹. Also, in assay [2], the Kd amounted to 0.2 nM, the koff stood at 6e-05 s⁻¹ and the kon worked out at 350000 M⁻¹ s⁻¹.

B5: AT36 (antibody, V domains shown)
VH: QVQVVQSGAEVKKPGASVKVSCKTSGYNFIDHSVSWVRQAPGQGLEWMGWISPYNHRTVYAEKFQGRVTMTTDTSTRTVSMELRRLTSDDTAVYFCARDRVQQGEGNFFDHWGQGTPVTVTS
VL: DIVMTQSPDSLAVSLGERATINCKSSQSLLHSSNNKIYLAWYQQKPGQPPKLLLYWASTRESGVPDRFTGSGSGTDFTLTINSLQAEDVAVYYCQQYYTTHPTFGQGTRLEIKR
For the molecule B5, the binding result in assay [3] is on record as “binds”.

B6: AT49 (antibody, V domains shown)
VH: QVLLVQSGAEIKKPGSSVKISCKASGGTFSSLALNWVRQAPGQGLQWMGGIIPLFGTQNYAQKFQGRVTITADESTSTAYMELSGLRPEDTAVYYCALFLWFGDQTSDDGFDVWGQGTVVTVSS
VL: DIVMTQSPLSLTVTPGEPASISCRSSQSLLHGNGYKYLHWYLQKPGQSPQLLIYLGSNRASGVPARFSGSGSDTDFTLKISTVETEDVGVYYCMQALQSPTFGQGTKVEIKR
Take B6: in assay [1], the Kd worked out at 0.5 nM, the koff worked out at 5e-05 s⁻¹ and the kon is 120000 M⁻¹ s⁻¹. In assay [2], the Kd was determined as 0.1 nM, the koff amounted to 3e-05 s⁻¹ and the kon came out at 220000 M⁻¹ s⁻¹.

B7: AT46 (antibody, V domains shown)
VH: EVQLVESGGGLVQPGGSLRLSCAASGFTFSRYVMSWVRQAPGRGLEWVSSITGSGATTYYADSVKGRFTISRDNSKNTVYLQMNRLRAEDTAIYYCANCGRAGQIFDDWGQGTLVTVSS
VL: QPVLTQSPSASASLGASVKLTCTLSSGHRNYAIAWHQQRPEKGPRYLMKIYTNGSHYPGDGTPDRFSGSSSGAERYLTISSLQSEDEADYYCQTWGAGIWVFGGGTKLTVLG
In the case of B7, the binding result in assay [5] is recorded as “no binding”.

B8: AT32 (antibody, V domains shown)
VH: QVQLVQSGAEMKKPGASVKVSCQVAGYTLTELSIHWVRQTPGNGLEWMGGFEPEDGEYIYPQKSQGRVTMTEDTSTGTAYMELRSLRSDDTAVYYCAAEARYCDNSRCSPNFDHWGQGTLVAVSS
VL: DIVMTQSPDSLAVSLGERATFSCKSSQSVLYDSNNKNYLAWYQQRPGQPPKLLIYWASTRESGVPDRFSGSGSGTDFTLTISSLQPEDVAVYYCQQYYDPLITFGQGTRLEIKR
Take B8: in assay [2], the Kd came out at 0.6 nM, the koff came out at 0.00043 s⁻¹ and the kon turned out to be 750000 M⁻¹ s⁻¹.

Values taken from US20150004155A1 (AIMM THERAPEUTICS B V, published 2015).
